In article PMC9371974 (Nature Structural & Molecular Biology, 2022):
Where a chain is given by its changes, count along the chain named. Names and notes keep the numbering of the source.

B1: POM1 scFv pomolog hcY57A (scFv, V domains shown)
VH: QVQLQQSGTELVMPGASVKMSCKASGYTFTDYWMHWVKQRPGQGLEWIGSIDPSDSATSHNEKFKGKATLTVDESSSTAYMQLSSLTSEDSAVYFCSRSGYGYYAMEYWGQGTSVTVSS
VL: DIVLTQSPAILSVSPGERVSFSCRASQNIGTSIHWYQQRTNESPRLIIKYASESISGIPSRFSGSGSGTDFTLSINSVESEDIADYYCQQSNTWPYTFGGGTKLELK
B2: POM1 scFv pomolog lcY50A (scFv, V domains shown)
VH: B1 VH with A57Y
VL: B1 VL with Y50A
B3: POM1 scFv pomolog lcS32A (scFv, V domains shown)
VH: B1 VH with A57Y
VL: B1 VL with S32A
B4: POM1 scFv pomolog lcW94A (scFv, V domains shown)
VH: B1 VH with A57Y
VL: B1 VL with W94A
B5: POM1 scFv pomolog hcY101A (scFv, V domains shown)
VH: B1 VH with A57Y, Y101A
VL: B1 VL
B6: POM1 scFv pomolog hcD55A (scFv, V domains shown)
VH: B1 VH with D55A, A57Y
VL: B1 VL
B7: POM1 scFv pomolog hcD52A (scFv, V domains shown)
VH: B1 VH with D52A, A57Y
VL: B1 VL
B8: POM1 scFv pomolog lcY96A (scFv, V domains shown)
VH: B1 VH with A57Y
VL: B1 VL with Y96A
B9: POM1 scFv pomolog lcS91A (scFv, V domains shown)
VH: B1 VH with A57Y
VL: B1 VL with S91A
B10: POM1 scFv pomolog hcY104A (scFv, V domains shown)
VH: B1 VH with A57Y, Y104A
VL: B1 VL
B11:  (antibody, V domains shown)
VH: B1 VH with A57Y, Y104A
VL: B1 VL
notes: also called holo-Y104A; hcY104A IgG holoantibody
B12: pomolog hcY57A (POM1 scFv, heavy chain Y57A) (scFv, V domains shown)
VH: B1 VH
VL: B1 VL
B13: pomolog lcS32A (POM1 scFv, light chain S32A) (scFv, V domains shown)
VH: B1 VH with A57Y
VL: B1 VL with S32A
B14: pomolog lcY96A (POM1 scFv, light chain Y96A) (scFv, V domains shown)
VH: B1 VH with A57Y
VL: B1 VL with Y96A
B15: pomolog hcY101A (POM1 scFv, heavy chain Y101A) (scFv, V domains shown)
VH: B1 VH with A57Y, Y101A
VL: B1 VL
B16: pomolog hcY104A (POM1 scFv, heavy chain Y104A) (scFv, V domains shown)
VH: B1 VH with A57Y, Y104A
VL: B1 VL
B17: pomolog lcW94A (POM1 scFv, light chain W94A) (scFv, V domains shown)
VH: B1 VH with A57Y
VL: B1 VL with W94A
B18: pomolog hcD52A (POM1 scFv, heavy chain D52A) (scFv, V domains shown)
VH: B1 VH with D52A, A57Y
VL: B1 VL
B19: pomolog lcY50A (POM1 scFv, light chain Y50A) (scFv, V domains shown)
VH: B1 VH with A57Y
VL: B1 VL with Y50A
B20: pomolog lcS91A (POM1 scFv, light chain S91A) (scFv, V domains shown)
VH: B1 VH with A57Y
VL: B1 VL with S91A
B21: pomolog hcD55A (POM1 scFv, heavy chain D55A) (scFv, V domains shown)
VH: B1 VH with D55A, A57Y
VL: B1 VL

The binders below were run against mPrP immobilized on the SPR sensor chip (rmPrP) (Mus musculus, UniProt P04925) (assay: SPR). Conditions: both partners purified.
B1 gave a Kd of 406 nM.
For B2, the Kd was 313 nM.
Work on B3 yielded a Kd of 9.98 nM.
B4 was tested, and the Kd was 201 nM.
B5 was tested, and the Kd was 11.5 nM.
For B6, the Kd was 372 nM.
Work on B7 yielded a Kd of 103 nM.
B8 was tested, and the Kd was 123 nM.
In the case of B9, the Kd is reported as 1430 nM.
In the case of B10, the Kd is reported as 8.79 nM.

What follows are binders tested against globular domain fragment of recombinant human PrP (rhPrP121-230) (Homo sapiens, UniProt P04156) (assay: ELISA). Conditions: both partners purified.
B11: binds.

Each binder was assayed against recombinant mouse PrP flexible tail fragment (rmPrP23-110) (Mus musculus, UniProt P04925) (assay: ELISA). Conditions: both partners purified.
B11: no binding.

The binders below were run against recombinant mouse prion protein immobilised for SPR (mPrP) (Mus musculus, UniProt P04925) (assay: SPR). Conditions: both partners purified.
Binder B12 has a Kd of 406 nM, a koff of 0.031 s⁻¹ and a kon of 77000 M⁻¹ s⁻¹.
For B13, the Kd was 10 nM, the koff was 0.00059 s⁻¹ and the kon was 64000 M⁻¹ s⁻¹.
B14 gave a Kd of 123 nM, a koff of 0.0074 s⁻¹ and a kon of 62000 M⁻¹ s⁻¹.
With B15 the Kd was 11 nM, the koff was 0.00071 s⁻¹ and the kon was 63000 M⁻¹ s⁻¹.
Work on B16 yielded a Kd of 8.8 nM, a koff of 0.00021 s⁻¹ and a kon of 36000 M⁻¹ s⁻¹.
Binder B17 has a Kd of 201 nM, a koff of 0.027 s⁻¹ and a kon of 310000 M⁻¹ s⁻¹.
In the case of B18, the Kd is reported as 103 nM, the koff is reported as 0.046 s⁻¹ and the kon is reported as 330000 M⁻¹ s⁻¹.
In the case of B19, the Kd is reported as 313 nM, the koff is reported as 0.0082 s⁻¹ and the kon is reported as 57000 M⁻¹ s⁻¹.
B20 gave a Kd of 1430 nM, a koff of 0.018 s⁻¹ and a kon of 13000 M⁻¹ s⁻¹.
B21 was tested, and the Kd was 372 nM, the koff was 0.037 s⁻¹ and the kon was 100000 M⁻¹ s⁻¹.

These binders were tested against full-length, recombinant mouse prion protein (rmPrP23-231) (Mus musculus, UniProt P04925) (assay: FRET or BRET). Conditions: both partners purified.
With B1 the Kd was 225 nM.
In the case of B2, the Kd is reported as 63.4 nM.
Work on B3 yielded a Kd of 7.3 nM.
In the case of B4, the Kd is reported as 73.1 nM.
B5 showed a Kd of 1.5 nM.
B6 was tested, and the Kd was 110 nM.
In the case of B7, the Kd is reported as 14.2 nM.
B8 showed a Kd of 138 nM.
For B9, the Kd was 92.3 nM.
Work on B10 yielded a Kd of 26 nM.
